Measured values: US20250084188A1 (published 2025)

Each binder was assayed against human chitinase-3-like protein 1 (hCHI3L1) (human, UniProt P36222 22-383) (assay: ELISA).
human chitinase-3-like protein 1 (hCHI3L1), sequence (P36222 22-383): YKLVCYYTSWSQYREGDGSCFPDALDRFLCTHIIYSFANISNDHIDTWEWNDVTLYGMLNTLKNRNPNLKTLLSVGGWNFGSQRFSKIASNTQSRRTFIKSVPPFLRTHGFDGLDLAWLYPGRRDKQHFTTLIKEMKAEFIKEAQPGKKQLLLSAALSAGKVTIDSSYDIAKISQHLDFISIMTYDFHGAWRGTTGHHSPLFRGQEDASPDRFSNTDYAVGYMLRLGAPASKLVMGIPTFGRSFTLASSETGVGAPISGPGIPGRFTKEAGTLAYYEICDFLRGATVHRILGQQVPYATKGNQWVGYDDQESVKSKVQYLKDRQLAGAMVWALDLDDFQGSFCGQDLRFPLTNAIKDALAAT

Binder | EC50 [nM]
H1 (IgG) (antibody, V domains shown) VH: EVQLVESGGGLVQPGGSLRLSCAASGFTFSSYAMSWVRQAPGKGLEWVSAIRSSGGTTYYADSVKGRFTISRDNSKNTLYLQMNSLRAEDTAVYYCAKSQSTVADYWGQGTLVTVSS VL: DIQMTQSPSSLSASVGDRVTITCRASQSISNWLNWYQQKPGKAPKLLIYATSRLQSGVPSRFSGSGSGTDFTLTISSLQPEDFATYYCQQSYSFPLTFGQGTKVEIK | 0.496
C5 (IgG) (antibody, V domains shown) VH: EVQLVESGGGLVQPGGSLRLSCAASGFTFSSYAMSWVRQAPGKGLEWVSSISSSSGTTHYADSVKGRFTISRDNSKNTLYLQMNSLRAEDTAVYYCAKGGAFDYWGQGTLVTVSS VL: DIQMTQSPSSLSASVGDRVTITCRASQDISRWLNWYQQKPGKAPKLLIYAASTLQSGVPSRFSGSGSGTDFTLTISSLQPEDFATYYCQQSYSFPLTFGQGTKVEIK | 0.093
A5 (IgG) (antibody, V domains shown) VH: not shown VL: DIQMTQSPSSLSASVGDRVTITCRASQSISRWLNWYQQKPGKAPKLLIYATSTLQSGVPSRFSGSGSGTDFTLTISSLQPEDFATYYCQQSYSFPWTFGQGTKVEIK | 0.972
H7 (IgG) (antibody, V domains shown) VH: EVQLVESGGGLVQPGGSLRLSCAASGFTFSSYGMHWVRQAPGKGLEWVSGISSSGGSKYYADSVKGRFTISRDNSKNTLYLQMNSLRAEDTAVYYCAKHGHQQMDFWGQGTLVTVSS VL: DIQMTQSPSSLSASVGDRVTITCRASQSISSWLNWYQQKPGKAPKLLIYAASRLQSGVPSRFSGSGSGTDFTLTISSLQPEDFATYYCQQTYSFPWTFGQGTKVEIK | 1.38
F2 (IgG) (antibody, V domains shown) VH: EVQLVESGGGLAQPGGSLRLSCAASGFTFSSYAMHWVRQAPGKGLEWVSSIKSSGGSKNYADSVKGRFTISRDNSKNTLYLQMNSLRAEDTAVYYCAKGYGASFDFWGQGTLVTVSS VL: DIQMTQSPSSLSASVGDRVTITCRASQDISSWLNWYQQKPGKAPKLLIYAASRLQSGVPSRFSGSGSGTDFTLTISSLQPEDFATYYCQQAYSFPWTFGQGTKVEIK | 1.75

The next lines start with the values.

EC50 [nM] | Binder
0.577 | D2 (IgG) (antibody, V domains shown) VH: EVQLVESGGGLVQPGGSLRLSCAASGFTFSSYAMHWVRQAPGKGLEWVSAISSSSGTIYYADSVKGRFTISRDNSKNTLYLQMNSLRAEDTAVYYCAKDFGAVFDYWGQGTLVTVSS VL: not shown
2.05 | A7 (IgG) (antibody, V domains shown) VH: EVQLVESGGGLVQPGGSLRLSCAASGFTFSDYAMSWVRQAPGKGLEWVSGISSSGGTIYYADSVKGRFTISRDNSKNTLYLQMNSLRAEDTAVYYCAKAIGSWADIWGQGTLVTVSS VL: DIQMTQSPSSLSASVGDRVTITCRASQDISNYLNWYQQKPGKAPKLLIYAASSLQSGVPSRFSGSGSGTDFTLTISSLQPEDFATYYCQQSYSFPYTFGQGTKVEIK
0.139 | 1E12 (IgG) (antibody, V domains shown) VH: EVQLVESGGGLVQPGGSLRLSCAASGFTFSSYAMHWVRQAPGKGLEWVSAISSSGGTKYYADSVKGRFTISRDNSKNTLYLQMNSLRAEDTAVYYCAKGLQGGAGAFDIWGQGTLVTVSS VL: DIQMTQSPSSLSASVGDRVTITCRASQSISNYLNWYQQKPGKAPKLLIYATSTLHSGVPSRFSGSGSGTDFTLTISSLQPEDFATYYCQQSYSFPWTFGQGTKVEIK
0.348 | E7 (IgG) (antibody, V domains shown) VH: EVQLVESGGGLVQPGGSLRLSCAASGFTFSSYAMHWVRQAPGKGLEWVSAISSSGGSIYYADSVKGRFTISRDNSKNTLYLQMNSLRAEDTAVYYCAKQGLSFDIWGQGTLVTVSS VL: DIQMTQSPSSLSASVGDRVTITCRASQSISNWLNWYQQKPGKAPKLLIYATSRLQSGVPSRFSGSGSGTDFTLTISSLQPEDFATYYCQQSYSFPYTFGQGTKVEIK
0.111 | F4 (IgG) (antibody, V domains shown) VH: not shown VL: DIQMTQSPSSLSASVGDRVTITCRASQSISRWLNWYQQKPGKAPKLLIYAASRLQSGVPSRFSGSGSGTDFTLTISSLQPEDFATYYCQQSYSTPWTFGQGTKVEIK
